This data set in a line: soluble on expression in E. coli; label from the status in PepcDB or PDB records.
For “MLDKLDAALRFQQEALNLRAQRQEVLAANIANADTPGYQARDIDFASELKKVMQRGRDATSVVALTMTSTQHIPAQALTPPTAELQYRIPDQPSLDGNTVDMDRERTQFADNSLQYQMSLSALSGQIKGMMNVLQSGN”, the “soluble on expression in E. coli” value is listed as “not soluble”.

On to “MGSDKIHHHHHHMAQQKPHDVNEPSRRRLLKGIGALGGALAITGGCPVAHAAKAESSPGTLTPDARQEKQPFYGRHQAGILTPQQASMMLVAFDVLAADKADLERLFRLLTQRIAFLTQGGPAPDTPNPRLPPMDSGILGPWIAPDNLTITVSVGHSLFDERFGLADKAPKKLQPMTRFPNDSLDAALCHGDLLLQICANTQDTVIHALRDVIKHTPDLLSVRWKREGFISDSAARSKGKETPINLLGFKDGTANPASHDSALMDKVVWVTADQDEPAWTVGGSYQAARIIQFHVEFWDRTPLKEQQTIFGRDKHTGAPLGMKNEHDTPDYSKDPNGEVIALDSHIRLANPRTPETQSSLMMRRGYSYSLGVTNAGQLDMGLLFVCYQHDLEKGFLTVQKRLNGEALEEYVKPIGGGYFFVLPGVVDEKHYLGESLLQA”, for which the “soluble on expression in E. coli” value is given as “not soluble”.

In the case of “MPGAVDFKERISRQRPHDRETYGHAGNTDLQDIVYQLESDRGRIVNSAAVRRLQQKTQVFPLERNAAVRSRLTHSLEVQQTGRFIVRTLFRQLGPRAAEVGLDGLEGALESLVEMACLMHDVGNPPFGHFGEYAINDWFERNLDALFERRIPPGQGDGLLQQRMLTDLKHFEGNAQAIRLVVKLLRLNLTYTQTAGLLKYVRPAYEPKPDKAAANHYLNKKPGFYLSEEAFVDELRRVLGMRPGTRHPVAYIMEAADDISYCLADIEDSVEKGILDIRQLADLLVKKFAVHHSPDAPIPGDADNMSFQRMVDYSLEKAEREPINKVSEFFIRLRVKMIHPLVQHAAQQFIDNFEAVHAGTLGRALMEDGSLPHAIVQTFKDVAMEWVFCHPEVETLELQGYRIIQGLLDFYAPLLRLPAEEFQALAEGRQAAAPHPQLLVRRLPSQQIKAYLEAMKGVAEDPLQRQWEFYHRCRMLQDFVSGMTDQHAQDEYRALSAL”, the “soluble on expression in E. coli” value is listed as “not soluble”.

Take “MGSDKIHHHHHHMNNKGKLAILFIDALPYFKSRNIGQILNLYRLIPGLGYSVNQHYELLYGKTPDDVGFFGEWSLGCSTKFDTIKFRFHKTIDSILWKLKLNLIRKGYRKIILRLEDMIPLGRRKYFLRKGTYAFRELAKEGFILYNTQFRGYIEELDRTLPRNEEKRMETMFNKMFNIAKNTDHPLLFTINIIDHIGHKYGPESPEYDYFLDLFAKKLLDLLIFLKENGFHVILFSDHGMSPYKAKVNLSDFEHYFGKFFGKYIVYFYDSLYFRAWIFDSFLYLEIEEFLNKLPGKILSSNDRKKFGVVHEEHGHVIFVLNEGFTFHPNYFGYSVMKGYHGYLPEFERQHGIAAFSRAFKIDNLFQGNPPKYLNSIDFSRIIKHILEANRNV”: the “soluble on expression in E. coli” value was “not soluble”.

As for “QTINKIDLQALEESQIDWAKYQPHQAVVLKARKQLRDHQQTALNATAAGLNDAERGKLIMACGTGKTFTSLKIAERLAGKGKRVLFLVPSLSLLSQTLTEWTQESETPLHSFAVCSDSDVGKKRKADEDTVQVFTHELRYPATTKADRLAAEMLKRHDAEHMSVVFSTYHSIDVISRAQHEYDLAAFDLVICDEAHRTTGATFDDDDESTFVRIHDVDYIRAIKRLYMTA”, the “soluble on expression in E. coli” value is given as “not soluble”.

With “MSLKLIATDMDGTLLRSNGEFPNEFPLILDSLLNKNIMFSVASGRQYFTLKDNMAGFEDKITFIAENGAFIVKDGKELFAKTLDRDMLSKVVDDAKKVPDCKLVLCGKKSAYVLDKSSAFIEEVEKYYHKSAVVNSLDEIDDEFFKIAICDYKGSANNSNVLLSPKWGKLFQLTVSGDIWLDIGRNDVNKGTAIKFLQDKFNINENETMAFGDYYNDVSMLQSVYHSYVMENAPDGVKKHGRFIAKSNDESGVIQVIKNKVLELGAEGHHHHHH”, the “soluble on expression in E. coli” value was “soluble”.

Regarding “MAQSTQEAEGEQQRRQAVLRERYLSFLQKSADKPATIEMCERTTVTATIKAFQPSSEHVIVGTVAVA”, the “soluble on expression in E. coli” value is “not soluble”.

Regarding “MKKKSVWIKADEGGWEEQKERITTGLESGADCVLVNPGDVEKVRELGNITVAAFARDNKSGADIVVVGKRGEGDGTKPLPQEIPGSFDVNAATLLTDKGVTVGGYVVIKDRSYERFAAEMGKICDYLLVTGTDWKVIPLENLIADLQREKVKIIFGVKSAEEARLAFQTLETGADGVLLDSGNPQEIKDTIKAARELESESTELESAVVTRVEPLGMGDRVCVDTCNLMQRGEGMLIGSQASGMFLVNSESDDSPYVAARPFRVNAGAVHSYIKIGDKTRYLSELQAGDSVTIIDSRGKQREGIVGRIKIESRPLMLIEAKAGDRTLTAILQNAETIKLVGKGGTPISVAKLKKGDEVLVRLEEGARHFGKKIEETIIEKLEHHHHHH”, the “soluble on expression in E. coli” value is “soluble”.

Regarding “MNPDEPNFIWKDLNAVRDMGCIIENELSEVLPNKRYETYSIIGRSGEFNETFNDYEPFDYEIEDVTIPYENLAAVKRWLTGKSKLITHNDEDKYLDAICTMSKPTSFKNEWGVFYTFNVEFRCQPFKRKVNEQPKVIKTKSIEITDHGDEIAFPYIEINSKGGDITLNIGSNSLTILRTQSGIVTIDTEKGKAIQEGNPLFTRGSWIKTNPGQNKLNISGNFIEAKFWNRSAYL”, the “soluble on expression in E. coli” value is reported as “not soluble”.

Regarding “MTAELLVNVTPSETRVAYIDGGILQEIHIEREARRGIVGNIYKGRVSRVLPGMQAAFVDIGLDKAAFLHASDIMPHTECVAGEEQKQFTVRDISELVRQGQDLMVQVVKDPLGTKGARLTTDITLPSRYLVFMPGASHVGVSQRIESESERERLKKVVAEYCDEQGGFIIRTAAEGVGEAELASDAAYLKRVWTKVMERKKRPQTRYQLYGELALAQRVLRDFADAELDRIRVDSRLTYEALLEFTSEYIPEMTSKLEHYTGRQPIFDLFDVENEIQRALERKVELKSGGYLIIDQTEAMTTVDINTGAFVGHRNLDDTIFNTNIEATQAIARQLRLRNLGGIIIIDFIDMNNEDHRRRVLHSLEQALSKDRVKTSVNGFSALGLVEMTRKRTRESIEHVLCNECPTCHGRGTVKTVETVCYEIMREIVRVHHAYDSDRFLVYASPAVAEALKGEESHSLAEVEIFVGKQVKVQIEPLYNQEQFDVVMM”, the “soluble on expression in E. coli” value is reported as “soluble”.

In the case of “MAHHHHHHMALIQTAHDACSRKVHCVRKGYLNDPFVSFFEKDHTIVNSPLMNRGTWLRTTAFENCVRGFATAAGQPIQVINFGAGMDTLYFRLKHSDPQFPVQKFMELDLADLVAEKERIIKRHSEMHSLVGSQYVLVSCDLYDAKGVAKALKEHLHGGTPTIMIAEMVFVYIEGSVTTNLLRTVMSDVIEPGTKTMLVTYDAIQPFDRFGKVMVENLQHFGADFKGIGDFPTPEAHAGRCSELGFKAVKSVTMKNLYLGVPRQIQIRLNKLEMIDDWEEWNLMHEHYCFVVASTEDAPLPKLF”, the “soluble on expression in E. coli” value is “not soluble”.

For the sequence “MLGKDYMLAIILVNCDDDLWGDHSLEVEAGLPPGWRKIHDAAGTYYWHVPSGSTQWQRPTWELGDAEDPGTGTEGIWGLRPPKGRSFSSLESSLDRSNSLSWYGGESYIQSMEPGAKCFAVRSLGWVEVPEEDLAPGKSSIAVNNCIQQLAQTRSRSQPPDGAWGEGQNMLMILKKDAMSLVNPLDHSLIHCQPLVHIRVWGVGSSKGRDRDFAFVASDKDSCMLKCHVFCCDVPAKAIASALHGLCAQILSERVEVSGDASCCSPDPISPEDLPRQVELLDAVSQAAQKYEALYMGTLPVTKAMGMDVLNEAIGTLTARGDRNAWVPTMLSVSDSLMTAHPIQAEASTEEEPLWQCPVRLVTFIGVGRDPHTFGLIADLGRQSFQCAAFWCQPHAGGLSEAVQAACMVQYQKCLVASAARGKAWGAQARARLRLKRTSSMDSPGGPLPLPLLKGGVGGAGATPRKRGVFSFLDAFRLKPSLLHMP”, the “soluble on expression in E. coli” value was “soluble”.

Take “MERILLVLDDTGRGEIAFQKLKKLAEDGLRGEVYILYIREMEVPPFVPEEKELAAYHRLMTQSMKKLEGFKNQLEKAGLKVSDVSVVFGKYADRLLLVEKQIKPDLIVVGFKGGLLKRVIGGFFGKDPCEVLLKKSKASLLICRG”: the “soluble on expression in E. coli” value was “not soluble”.

On to “SRLFSKALKGDHRCGETETPKSCSEVAGCKAAMRHQGKIPEELSLDDRARTQKKWGRGKWEPEPSSKPPREATLEERHARGEKHLGVEIEKTSGEIIRCEKCKRERELQQSLERERLSLGTSELDMGKGPMYDVEKLVRTRSCRRSPEANPASGEEGWKGDSHRSSPRNPTQELRRPSKSMDKKEDRGPEDQESHAQGAAKAKKDLVEVLPVTEEGLREVKKDTRPMSRSKHGGWLLREHQAGFEKLRRTRGEEKEAEKEKKPCMSGGRRMTLRDDQPAKLEKEPKTRPEENKPERPSGRKPRPMGIIAANVEKHYETGRVIGDGNFAVVKECRHRETRQAYAMKIIDKSRLKGKEDMVDSEILIIQSLSHPNIVKLHEVYETDMEIYLILEYVQGGDLFDAIIESVKFPEPDAALMIMDLCKALVHMHDKSIVHRDLKPENLLVQRNEDKSTTLKLADFGLAKHVVRPIFTVCGTPTYVAPEILSEKGYGLEVDMWAAGVILYILLCGFPPFRSPERDQDELFNIIQLGHFEFLPPYWDNISDAAKDLVSRLLVVDPKKRYTAHQVLQHPWIETAGKTNTVKRQKQVSPSSEGHFRSQHKRVVEQVS”, for which the “soluble on expression in E. coli” value is given as “soluble”.

In the case of “MSLTNFVCHTLYHLLITIIKLKDKENTRIFICDTITDYETWVKILNDQGIRTESFKEFAYREQLQNKNIEEVMELVDSDLNHYFERVDTQVYLFNDDTLIGRYMVYLGKNYHLIEDGYNCFQAKLFLGGSVVKRVIKTYLFKKYVPYGFSKYCLSIEVNSLVGLPHDIRSKKYKELPRKKLFDSLNKEQKSLIFKIFKTKPLTITPKSVLLLTQPLAQDKWYKTPTERFQSIQEQYDYFDDIVQEYRTLGYNVYLKVHPRDVVDYSKLPVELLPSNVPMEIIELMSTGRFECGITHSSTALDSLTCVDKKITLVDLKDIKEGHHHHHH”, the “soluble on expression in E. coli” value is on record as “not soluble”.

For “MNSCNRLPCAHEVLAVFAHPDDESFGLGAVLGDFTAQGTRLRGLCFTHGEASTLGRTDRNLGEVRREELAAAAQVLGVDHVQLLAYPDNGLAQIPLNELTQRVVDALAGADLLLVFDDNGVTGHPDHRRATEAALAAASTPSIPVLAWALPQPIADRLNAEFSASFGGRGHGHLDIMIEVDRSRQLAAIGCHFTQSADNPVLWRRLELLGDREYLRWLRRSVP”, the “soluble on expression in E. coli” value is “soluble”.

In the case of “KVWAFDIQPQALNNTRCRLQEAGYSNVRLILDGHENLKQYIPKPLDAAIFNFGWLPGGDKSLTTRTETSIAALSATLSLLKENGMLIAVLYPGHENGKQEAEAIEQWAKNLPQEQFAVLRYGFTNRKNSPPYLLVFEKLRQK”, the “soluble on expression in E. coli” value is “not soluble”.

With “MRCYAKIHSYQLLFVADVDYDCHHKDKFFRRHCVVAKILPRFDAVLFLDADTGVVNPSRKIEEFLKPGIDITFVNRFCNWEIASGFYLARNTPFAINLLNNFADYESKLPNSFHGTDNGAIHIFLAEKIFPQASIEIGICRRAYEKSTSVEDLILYEACIKALFGVVTDFGKIQILRKGTGWARDGWLTSMVWHPETDFMLHGWKTNALIPTPTDPLVAIEMSMSQWFNPLNGSIDLSKCNSHNSTWNYDARLLGNNEEIQKSLHRIQKENSILQVKAYSDFSKFISL”, the “soluble on expression in E. coli” value is recorded as “not soluble”.

For “VNEIVVNPNATLDWQLALRQAAGKTDLARDMLQMLLDFLPEVRNKVEEQLVGENPEGLVDLIHKLHGSCGYSGVPRMKNLCQLIEQQLRSGTKEEDLEPELLELLDEMDNVAREASKILG”, the “soluble on expression in E. coli” value is reported as “soluble”.

The values above are taken from the DeepSol protein solubility set.
